Consider seven molecules from patent publication US20170233495A1 (CALYPSO BIOTECH, published 2017).

Among the targets are rat proMMP9 (rat, UniProt P50282 20-708); mouse active MMP9 (mouse, UniProt P41245 108-730, limits assumed); mouse proMMP9 (mouse, UniProt P41245 20-730).
Common to all, as to assay: cell-based or functional assay
The target in assay [1] is human MMP9 (i.e. activated MMP9), catalytically active caspase-cleaved recombinant MMP9 (human, UniProt P14780 107-707).
Assay [2] has as its target recombinant human proMMP9 (full length, latent form) (human, UniProt P14780 20-707).
For assay [3], the target named is Cynomologus monkey (cyno) proMMP9 (Cynomologus monkey).

Chain of mouse proMMP9 (P41245 20-730): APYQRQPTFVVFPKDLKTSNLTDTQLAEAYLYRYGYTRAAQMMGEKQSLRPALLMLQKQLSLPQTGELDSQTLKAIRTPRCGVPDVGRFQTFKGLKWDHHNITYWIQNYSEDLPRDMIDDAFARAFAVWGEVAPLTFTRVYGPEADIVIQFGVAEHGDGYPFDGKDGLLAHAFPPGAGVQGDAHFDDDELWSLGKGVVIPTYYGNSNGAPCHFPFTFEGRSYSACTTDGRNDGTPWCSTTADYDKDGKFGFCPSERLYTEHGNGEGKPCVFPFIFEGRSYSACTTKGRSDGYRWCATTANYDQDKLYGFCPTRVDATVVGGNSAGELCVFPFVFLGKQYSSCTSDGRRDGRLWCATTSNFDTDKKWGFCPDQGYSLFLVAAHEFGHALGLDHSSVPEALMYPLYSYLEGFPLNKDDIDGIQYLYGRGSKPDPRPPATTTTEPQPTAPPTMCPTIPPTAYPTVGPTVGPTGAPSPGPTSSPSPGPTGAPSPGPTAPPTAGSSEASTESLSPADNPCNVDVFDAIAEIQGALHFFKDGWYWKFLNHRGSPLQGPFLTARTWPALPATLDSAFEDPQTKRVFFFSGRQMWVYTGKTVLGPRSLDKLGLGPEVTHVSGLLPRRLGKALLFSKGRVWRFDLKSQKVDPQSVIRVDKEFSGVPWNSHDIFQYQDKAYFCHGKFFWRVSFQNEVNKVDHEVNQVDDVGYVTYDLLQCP
Chain of human MMP9 (i.e. activated MMP9), catalytically active caspase-cleaved recombinant MMP9 (P14780 107-707): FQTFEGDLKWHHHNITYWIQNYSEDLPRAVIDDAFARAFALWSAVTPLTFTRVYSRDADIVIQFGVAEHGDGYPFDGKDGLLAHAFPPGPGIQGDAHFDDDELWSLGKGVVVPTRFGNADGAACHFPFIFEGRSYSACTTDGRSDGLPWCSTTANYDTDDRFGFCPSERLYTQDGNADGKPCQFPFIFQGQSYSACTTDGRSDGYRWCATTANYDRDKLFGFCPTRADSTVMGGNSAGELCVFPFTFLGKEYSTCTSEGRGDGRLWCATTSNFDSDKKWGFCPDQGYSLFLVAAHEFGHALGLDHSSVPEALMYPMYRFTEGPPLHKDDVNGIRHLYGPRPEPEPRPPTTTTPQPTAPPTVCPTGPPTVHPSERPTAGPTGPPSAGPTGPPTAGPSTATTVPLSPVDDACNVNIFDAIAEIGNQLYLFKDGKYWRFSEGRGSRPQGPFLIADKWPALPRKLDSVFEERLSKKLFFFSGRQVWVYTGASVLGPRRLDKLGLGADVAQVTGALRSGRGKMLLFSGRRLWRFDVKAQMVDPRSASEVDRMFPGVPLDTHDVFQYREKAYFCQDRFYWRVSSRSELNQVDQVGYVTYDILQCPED
Chain of rat proMMP9 (P50282 20-708): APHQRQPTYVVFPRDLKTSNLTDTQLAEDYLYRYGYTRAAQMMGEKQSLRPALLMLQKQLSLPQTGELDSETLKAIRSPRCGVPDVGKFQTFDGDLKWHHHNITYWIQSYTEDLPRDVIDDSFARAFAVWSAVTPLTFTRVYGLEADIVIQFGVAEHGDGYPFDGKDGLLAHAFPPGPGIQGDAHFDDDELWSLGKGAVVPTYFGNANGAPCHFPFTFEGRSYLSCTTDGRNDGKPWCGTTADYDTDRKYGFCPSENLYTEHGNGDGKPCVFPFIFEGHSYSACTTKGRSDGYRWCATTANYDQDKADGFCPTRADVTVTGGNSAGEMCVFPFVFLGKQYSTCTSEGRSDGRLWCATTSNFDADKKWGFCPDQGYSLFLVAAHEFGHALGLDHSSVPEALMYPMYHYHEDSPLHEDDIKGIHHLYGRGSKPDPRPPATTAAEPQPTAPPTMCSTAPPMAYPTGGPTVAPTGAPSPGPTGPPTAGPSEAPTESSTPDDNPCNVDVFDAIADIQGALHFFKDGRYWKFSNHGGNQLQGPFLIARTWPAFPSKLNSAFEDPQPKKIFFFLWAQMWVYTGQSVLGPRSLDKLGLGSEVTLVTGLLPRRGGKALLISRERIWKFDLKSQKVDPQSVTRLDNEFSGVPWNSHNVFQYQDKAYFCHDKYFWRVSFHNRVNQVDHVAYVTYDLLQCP
Chain of recombinant human proMMP9 (full length, latent form) (P14780 20-707): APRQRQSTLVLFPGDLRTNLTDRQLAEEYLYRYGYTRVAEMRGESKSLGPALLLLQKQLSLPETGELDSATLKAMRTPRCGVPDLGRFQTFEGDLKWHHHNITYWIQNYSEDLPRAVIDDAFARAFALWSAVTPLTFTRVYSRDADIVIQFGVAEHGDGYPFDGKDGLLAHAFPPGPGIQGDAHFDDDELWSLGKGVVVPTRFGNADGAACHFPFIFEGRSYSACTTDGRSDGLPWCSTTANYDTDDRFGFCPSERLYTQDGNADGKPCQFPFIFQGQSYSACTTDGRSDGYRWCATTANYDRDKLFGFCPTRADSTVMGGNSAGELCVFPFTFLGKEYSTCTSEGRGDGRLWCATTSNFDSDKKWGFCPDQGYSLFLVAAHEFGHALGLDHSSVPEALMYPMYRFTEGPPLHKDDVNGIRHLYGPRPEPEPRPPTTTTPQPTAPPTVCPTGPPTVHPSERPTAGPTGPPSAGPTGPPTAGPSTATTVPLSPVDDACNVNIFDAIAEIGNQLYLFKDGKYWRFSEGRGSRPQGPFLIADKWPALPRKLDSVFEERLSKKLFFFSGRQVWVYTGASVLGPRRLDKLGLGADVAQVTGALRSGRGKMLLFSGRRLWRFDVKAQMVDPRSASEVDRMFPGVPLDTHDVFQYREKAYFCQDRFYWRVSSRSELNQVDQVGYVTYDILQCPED
Chain of mouse active MMP9 (P41245 108-730 limits assumed): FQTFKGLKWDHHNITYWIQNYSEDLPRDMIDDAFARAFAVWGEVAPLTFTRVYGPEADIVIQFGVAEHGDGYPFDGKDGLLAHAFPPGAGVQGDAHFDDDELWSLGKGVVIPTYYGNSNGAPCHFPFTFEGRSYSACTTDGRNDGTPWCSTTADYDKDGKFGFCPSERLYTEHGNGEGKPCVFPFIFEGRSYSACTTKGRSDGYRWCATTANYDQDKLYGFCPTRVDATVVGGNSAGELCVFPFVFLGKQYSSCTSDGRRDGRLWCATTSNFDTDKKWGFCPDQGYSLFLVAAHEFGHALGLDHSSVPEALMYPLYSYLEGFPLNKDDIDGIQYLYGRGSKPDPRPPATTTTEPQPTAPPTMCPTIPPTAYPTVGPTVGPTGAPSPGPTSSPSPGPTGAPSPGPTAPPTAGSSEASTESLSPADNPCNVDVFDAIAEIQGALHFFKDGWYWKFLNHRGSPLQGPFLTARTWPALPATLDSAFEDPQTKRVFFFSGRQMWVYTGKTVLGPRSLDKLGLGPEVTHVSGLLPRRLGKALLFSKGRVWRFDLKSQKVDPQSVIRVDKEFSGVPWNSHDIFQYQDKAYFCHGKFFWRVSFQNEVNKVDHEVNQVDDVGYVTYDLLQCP

B1: F20-VH-GL1/B03-VL-GL1c (antibody, human IgG4, V domains shown)
VH: EVQLVESGGGLVQPGRSLRLSCAASGFTFNDYPMHWVRQAPGKGLEWVSGISSNSGSVGYADSVKGRFTISRDNAKNSLYLQMNSLRAEDTALYYCARDKIYYGSGSYDFYYYYGMDVWGQGTTVTVSS
VL: SSELTQDPAVSVALGQTVRITCQGDSLRSYYASWYQQKPGQAPVVVIYGKNNRPSGIPDRFSGSSSGNTVSLTITGAQAEDEADYYCQSRDNIGNHRVVLFGGGTKLTVL
As to B1, in the assay with rat proMMP9, the “Efficacy, MMP3/MMP9 gelatin assay” value worked out at 100% and the “IC50 (nM), MMP3/MMP9 gelatin assay” value was 4.99 nM. Moreover, in assay [1], the “Efficacy, DQ-gelatin digestion, MMP9 assay” value amounted to 100% and the “IC50 (nM), DQ-gelatin digestion, MMP9 assay” value came out at 1.92 nM. In addition, in assay [2], the “Efficacy, DQ-gelatin digestion, MMP3/MMP9 assay” value (from here on “Efficacy … MMP3/MMP9 assay”) worked out at 100% and the “IC50 (nM), DQ-gelatin digestion, MMP3/MMP9 assay” value (“IC50 (nM) … MMP3/MMP9 assay” for short) amounted to 9.05 nM. For the same molecule, in the assay with mouse active MMP9, the “Efficacy, MMP9 gelatin assay” value was 100% and the “IC50 (nM), MMP9 gelatin assay” value was 333 nM. Further, in the assay with mouse proMMP9, the “Efficacy, MMP3/MMP9 gelatin assay” value is 25% and the “IC50 (nM), MMP3/MMP9 gelatin assay” value turned out to be 38.8 nM. Besides, in assay [3], the “Efficacy, MMP3/MMP9 gelatin assay” value stood at 100% and the “IC50 (nM), MMP3/MMP9 gelatin assay” value is 3.85 nM.

B2: F20-VH-GL1-V4-V9-V14/B03-VL-GL1c (antibody, human IgG4 S228P, V domains shown)
VH: EVQLVESGGGLVQPGRSLRLSCAASGFTFNDYPMHWVRQAPGKGLEWVSGISSRSGSVGYAESVKGRFTISRDNAKNSLYLQMNSLRAEDTALYYCARDKIYYGSGSYDFYYYYGIDVWGQGTTVTVSS
VL: SSELTQDPAVSVALGQTVRITCQGDSLRSYYASWYQQKPGQAPVVVIYGKNNRPSGIPDRFSGSSSGNTVSLTITGAQAEDEADYYCQSRDNIGNHRVVLFGGGTKLTVL
In the case of B2, in the assay with rat proMMP9, the “Efficacy, MMP3/MMP9 gelatin assay” value amounted to 100% and the “IC50 (nM), MMP3/MMP9 gelatin assay” value is 2.83 nM. Besides, in assay [1], the “Efficacy, DQ-gelatin digestion, MMP9 assay” value came out at 100% and the “IC50 (nM), DQ-gelatin digestion, MMP9 assay” value turned out to be 1.3 nM. Further, in assay [2], the “Efficacy … MMP3/MMP9 assay” value turned out to be 100% and the “IC50 (nM) … MMP3/MMP9 assay” value amounted to 5.48 nM. For the same molecule, in the assay with mouse active MMP9, the “Efficacy, MMP9 gelatin assay” value amounted to 100% and the “IC50 (nM), MMP9 gelatin assay” value was found to be 164 nM. For the same molecule, in the assay with mouse proMMP9, the “Efficacy, MMP3/MMP9 gelatin assay” value is 100% and the “IC50 (nM), MMP3/MMP9 gelatin assay” value is 462 nM. For the same molecule, in assay [3], the “Efficacy, MMP3/MMP9 gelatin assay” value is 100% and the “IC50 (nM), MMP3/MMP9 gelatin assay” value came to 3.75 nM.

B3: F20-VH-GL1-V1-V9/B08-VL-GL6c (antibody, human IgG4 S228P, V domains shown)
VH: EVQLVESGGGLVQPGRSLRLSCAASGFTFNDYPMHWVRQAPGKGLEWVSGISSQSGSVGYAESVKGRFTISRDNAKNSLYLQMNSLRAEDTALYYCARDKIYYGSGSYDFYYYYGMDVWGQGTTVTVSS
VL: QSALTQPASVSGSPGQSITISCTGTSNDVGAYNRVSWYQQHPGKAPKLMIYGVSNRPSGVSNRFSGSKSGNTASLTISGLQAEDEADFYCTSYSSSTTSYVVFGGGTKVTVL
Turning to B3, in the assay with rat proMMP9, the “Efficacy, MMP3/MMP9 gelatin assay” value came to 100% and the “IC50 (nM), MMP3/MMP9 gelatin assay” value was 7.77 nM. Moreover, in assay [1], the “Efficacy, DQ-gelatin digestion, MMP9 assay” value was found to be 100% and the “IC50 (nM), DQ-gelatin digestion, MMP9 assay” value is 2.64 nM. In assay [2], the “Efficacy … MMP3/MMP9 assay” value is 100% and the “IC50 (nM) … MMP3/MMP9 assay” value amounted to 23.7 nM. In addition, in the assay with mouse active MMP9, the “Efficacy, MMP9 gelatin assay” value was 100% and the “IC50 (nM), MMP9 gelatin assay” value turned out to be 1.2 nM. Moreover, in the assay with mouse proMMP9, the “Efficacy, MMP3/MMP9 gelatin assay” value turned out to be 100% and the “IC50 (nM), MMP3/MMP9 gelatin assay” value worked out at 7.69 nM. Moreover, in assay [3], the “Efficacy, MMP3/MMP9 gelatin assay” value was found to be 100% and the “IC50 (nM), MMP3/MMP9 gelatin assay” value came to 15.8 nM.

B4: F20-VH-GL1-V1-V9-V14/B03-VL-GL1c (antibody, human IgG4 S228P, V domains shown)
VH: EVQLVESGGGLVQPGRSLRLSCAASGFTFNDYPMHWVRQAPGKGLEWVSGISSQSGSVGYAESVKGRFTISRDNAKNSLYLQMNSLRAEDTALYYCARDKIYYGSGSYDFYYYYGIDVWGQGTTVTVSS
VL: SSELTQDPAVSVALGQTVRITCQGDSLRSYYASWYQQKPGQAPVVVIYGKNNRPSGIPDRFSGSSSGNTVSLTITGAQAEDEADYYCQSRDNIGNHRVVLFGGGTKLTVL
In the case of B4, in the assay with rat proMMP9, the “Efficacy, MMP3/MMP9 gelatin assay” value stood at 100% and the “IC50 (nM), MMP3/MMP9 gelatin assay” value worked out at 8.82 nM. In addition, in assay [1], the “Efficacy, DQ-gelatin digestion, MMP9 assay” value came to 100% and the “IC50 (nM), DQ-gelatin digestion, MMP9 assay” value came out at 3.16 nM. In addition, in assay [2], the “Efficacy … MMP3/MMP9 assay” value was determined as 100% and the “IC50 (nM) … MMP3/MMP9 assay” value worked out at 15.2 nM. Moreover, in the assay with mouse active MMP9, the “IC50 (nM), MMP9 gelatin assay” value is greater than 500 nM. In addition, in the assay with mouse proMMP9, the “IC50 (nM), MMP3/MMP9 gelatin assay” value was greater than 500 nM. Besides, in assay [3], the “Efficacy, MMP3/MMP9 gelatin assay” value was found to be 100% and the “IC50 (nM), MMP3/MMP9 gelatin assay” value was 12.5 nM.

B5: F20-VH-GL1/B08-VL-GL6c (antibody, human IgG4, V domains shown)
VH: EVQLVESGGGLVQPGRSLRLSCAASGFTFNDYPMHWVRQAPGKGLEWVSGISSNSGSVGYADSVKGRFTISRDNAKNSLYLQMNSLRAEDTALYYCARDKIYYGSGSYDFYYYYGMDVWGQGTTVTVSS
VL: QSALTQPASVSGSPGQSITISCTGTSNDVGAYNRVSWYQQHPGKAPKLMIYGVSNRPSGVSNRFSGSKSGNTASLTISGLQAEDEADFYCTSYSSSTTSYVVFGGGTKVTVL
Turning to B5, in the assay with rat proMMP9, the “Efficacy, MMP3/MMP9 gelatin assay” value is 100% and the “IC50 (nM), MMP3/MMP9 gelatin assay” value is 17.4 nM. Moreover, in assay [1], the “Efficacy, DQ-gelatin digestion, MMP9 assay” value came to 100% and the “IC50 (nM), DQ-gelatin digestion, MMP9 assay” value was 3.92 nM. In assay [2], the “Efficacy … MMP3/MMP9 assay” value worked out at 100% and the “IC50 (nM) … MMP3/MMP9 assay” value stood at 44 nM. For the same molecule, in the assay with mouse active MMP9, the “Efficacy, MMP9 gelatin assay” value stood at 100% and the “IC50 (nM), MMP9 gelatin assay” value was 0.86 nM. Further, in the assay with mouse proMMP9, the “Efficacy, MMP3/MMP9 gelatin assay” value was 100% and the “IC50 (nM), MMP3/MMP9 gelatin assay” value is 7.91 nM. Moreover, in assay [3], the “Efficacy, MMP3/MMP9 gelatin assay” value stood at 100% and the “IC50 (nM), MMP3/MMP9 gelatin assay” value was 29.9 nM.

B6: F20-VH-GL1-V4-V9-V14/B08-VL-GL6c (antibody, human IgG4 S228P, V domains shown)
VH: EVQLVESGGGLVQPGRSLRLSCAASGFTFNDYPMHWVRQAPGKGLEWVSGISSRSGSVGYAESVKGRFTISRDNAKNSLYLQMNSLRAEDTALYYCARDKIYYGSGSYDFYYYYGIDVWGQGTTVTVSS
VL: QSALTQPASVSGSPGQSITISCTGTSNDVGAYNRVSWYQQHPGKAPKLMIYGVSNRPSGVSNRFSGSKSGNTASLTISGLQAEDEADFYCTSYSSSTTSYVVFGGGTKVTVL
On to B6, for which, in the assay with rat proMMP9, the “Efficacy, MMP3/MMP9 gelatin assay” value was found to be 100% and the “IC50 (nM), MMP3/MMP9 gelatin assay” value came to 6.19 nM. Besides, in assay [1], the “Efficacy, DQ-gelatin digestion, MMP9 assay” value came out at 100% and the “IC50 (nM), DQ-gelatin digestion, MMP9 assay” value turned out to be 2.92 nM. In assay [2], the “Efficacy … MMP3/MMP9 assay” value came out at 100% and the “IC50 (nM) … MMP3/MMP9 assay” value was found to be 20.4 nM. In the assay with mouse active MMP9, the “Efficacy, MMP9 gelatin assay” value was determined as 100% and the “IC50 (nM), MMP9 gelatin assay” value amounted to 2.37 nM. For the same molecule, in the assay with mouse proMMP9, the “Efficacy, MMP3/MMP9 gelatin assay” value was determined as 100% and the “IC50 (nM), MMP3/MMP9 gelatin assay” value amounted to 12.7 nM. Further, in assay [3], the “Efficacy, MMP3/MMP9 gelatin assay” value was 100% and the “IC50 (nM), MMP3/MMP9 gelatin assay” value worked out at 10.8 nM.

B7: F20-VH-GL1-V1-V9-V14/B08-VL-GL6c (antibody, human IgG4 S228P, V domains shown)
VH: EVQLVESGGGLVQPGRSLRLSCAASGFTFNDYPMHWVRQAPGKGLEWVSGISSQSGSVGYAESVKGRFTISRDNAKNSLYLQMNSLRAEDTALYYCARDKIYYGSGSYDFYYYYGIDVWGQGTTVTVSS
VL: QSALTQPASVSGSPGQSITISCTGTSNDVGAYNRVSWYQQHPGKAPKLMIYGVSNRPSGVSNRFSGSKSGNTASLTISGLQAEDEADFYCTSYSSSTTSYVVFGGGTKVTVL
B7: in the assay with rat proMMP9, the “Efficacy, MMP3/MMP9 gelatin assay” value is 100% and the “IC50 (nM), MMP3/MMP9 gelatin assay” value worked out at 12.3 nM. In assay [1], the “Efficacy, DQ-gelatin digestion, MMP9 assay” value came out at 100% and the “IC50 (nM), DQ-gelatin digestion, MMP9 assay” value turned out to be 3.86 nM. For the same molecule, in assay [2], the “Efficacy … MMP3/MMP9 assay” value was 100% and the “IC50 (nM) … MMP3/MMP9 assay” value amounted to 38.1 nM. In addition, in the assay with mouse active MMP9, the “Efficacy, MMP9 gelatin assay” value was determined as 100% and the “IC50 (nM), MMP9 gelatin assay” value came to 1.91 nM. In the assay with mouse proMMP9, the “Efficacy, MMP3/MMP9 gelatin assay” value worked out at 100% and the “IC50 (nM), MMP3/MMP9 gelatin assay” value worked out at 11.1 nM. For the same molecule, in assay [3], the “Efficacy, MMP3/MMP9 gelatin assay” value came out at 100% and the “IC50 (nM), MMP3/MMP9 gelatin assay” value was determined as 27.6 nM.
